The values below come from patent US20100104555A1 (Scripps Research, published 2010).

One may read the IC50 as the midpoint of a concentration-inhibition curve. Read a low IC50 as higher potency. The term EC50 denotes the concentration giving half of the maximal effect.

In test [1] the target is T1, E1E2 of HCV isolate H77 (hepatitis C virus genotype 1a, isolate …, UniProt P27958 192-383; P27958 384-746). Briefly: cell-based or functional assay.
Test [2] addresses T1, E1E2 of HCV isolate H77. Briefly: ELISA, mAb inhibits E1E2 (H77) binding to coated CD81-LEL. In general terms: In an ELISA, binding on a coated surface is turned into a signal by an enzyme label.
The next test concerns the target E2412-589 (hepatitis C virus isolate H77, UniProt P27958 412-588). The test is described as follows: capture ELISA, coated mAb, 293T supernatant.
Another test addresses T2, E2456-645 (hepatitis C virus isolate H77, UniProt P27958 456-645).
T2 chain: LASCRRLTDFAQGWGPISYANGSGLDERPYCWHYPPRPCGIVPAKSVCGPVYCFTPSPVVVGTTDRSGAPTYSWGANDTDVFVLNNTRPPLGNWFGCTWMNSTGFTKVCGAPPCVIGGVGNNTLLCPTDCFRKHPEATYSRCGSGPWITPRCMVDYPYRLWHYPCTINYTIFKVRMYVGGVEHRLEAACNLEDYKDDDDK
Briefly: capture ELISA, coated mAb, 293T supernatant.

The next test deals with T3, E2492-645 (hepatitis C virus isolate H77, UniProt P27958 492-645).
T3 chain: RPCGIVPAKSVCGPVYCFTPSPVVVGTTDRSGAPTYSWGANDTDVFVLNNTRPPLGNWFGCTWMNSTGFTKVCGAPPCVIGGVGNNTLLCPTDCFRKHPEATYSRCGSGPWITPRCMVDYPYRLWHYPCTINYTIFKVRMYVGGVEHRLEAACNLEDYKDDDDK
Briefly: capture ELISA, coated mAb, 293T supernatant.

Another test addresses E2412-574 (hepatitis C virus isolate H77, UniProt P27958 412-574). The test is described as follows: capture ELISA, coated mAb, 293T supernatant.
The target in another test is T4, E2412-611 (hepatitis C virus isolate H77, UniProt P27958 412-611).
T4 chain: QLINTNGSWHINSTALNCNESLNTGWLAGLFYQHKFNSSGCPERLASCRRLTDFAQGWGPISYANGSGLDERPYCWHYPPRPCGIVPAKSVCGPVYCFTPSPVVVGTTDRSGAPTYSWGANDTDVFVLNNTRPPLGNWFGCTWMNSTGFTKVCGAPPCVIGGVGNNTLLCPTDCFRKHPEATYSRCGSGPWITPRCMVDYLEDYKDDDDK
The test is described as follows: capture ELISA, coated mAb, 293T supernatant.

The target in test [3] is T1, E1E2 of HCV isolate H77. Briefly: ELISA on lectin-captured E1E2; apparent affinity = half-maximal binding.
Test [4] addresses vaccinia-expressed E1E2 (isolate HCV-1) (hepatitis C virus genotype 1a, isolate …, UniProt P26664 192-383; P26664 384-746). Described as above.

B1: MAb AR3C (antibody, V domains shown)
VH: LEQSGAEVKKPGSSVKVSCETSGGTLDNYALNWVRQAPGQGLEWIGGVVPLFGTTRNAQKFQGRVTISDDKSTGTGHMELRSLRSEDTAVYYCVRSVTPRYCGGGFCYGEFDYWGQGTLVTVSS
VL: ELTQSPATLSVSPGERATLSCRASQSVSSNLAWYQQKPGQAPRLLIYGASTRATGIPARFSGSGSGTDFTLTVSRLEPEDSAVYFCQQYRSPLTFGGGTKVEIKR
notes: also called IgG1 AR3C
As for B1, the “Neutralizing activity (IC50), HCVpp” value in the test with E1E2 of HCV isolate H77 [1] turned out to be 1 µg/mL. In addition, the 50% inhibitory concentration (IC50) in the test with E1E2 of HCV isolate H77 [2] came out at 2 nM. The binding result in the test with E2412-589, with E2456-645, with E2492-645, with E2412-574 and with E2412-611 was “no binding” each time. Further, the results for the concentration giving a half-maximal response (EC50) (with E1E2 of HCV isolate H77 [3]; in [4]) were 2.3 nM and 1.4 nM, respectively.
